B2: TRAIP CC (66–164 aa) (domain or fragment, human, UniProt Q9BWF2 66-164, looked up)
chain: LAQEEENVLDAEFLKNELDNVRAQLSQKDKEKRDSQVIIDTLRDTLEERNATVVSLQQALGKAEMLCSTLKKQMKYLEQQQDETKQAQEEARRLRSKMK
notes: The abstract prints 64–166 for this construct; Calculated mass with the C-terminal His tag is 12325 Da; also called TRAIP coiled-coil domain; TRAIP-1; source: E. coli BL21 (DE3), purified (Ni-NTA, SEC); not shown: His6, C-terminal, kept

How the values were obtained:
[1] = molecular target: the molecule itself; test: SEC; each protein alone on Superdex 200 HR 10/30, 20 mM Tris-HCl pH 8.0, 150 mM NaCl; oligomeric state from the elution volume
[2] = molecular target: the molecule itself; test: SEC-MALS; TRAIP CC alone on a size exclusion column HR 10/30, 20 mM Tris-HCl pH 8, 150 mM NaCl; three-angle light scattering and refractive index detectors (Wyatt mini-DAWN TREOS), ASTRA
TRAIP CC (66–164 aa) = molecular target: B2; test: SEC; purified proteins mixed in a molar ratio of approximately 1:1, pre-incubated 30 min at 4 °C, Superdex 200 HR 10/30, 20 mM Tris-HCl pH 8.0, 150 mM NaCl; fractions on SDS-PAGE; details: both partners purified

B1: TRAIP RINGCC (1-157aa) (domain or fragment, human, UniProt Q9BWF2 1-157, looked up)
chain: MPIRALCTICSDFFDHSRDVAAIHCGHTFHLQCLIQWFETAPSRTCPQCRIQVGKRTIINKLFFDLAQEEENVLDAEFLKNELDNVRAQLSQKDKEKRDSQVIIDTLRDTLEERNATVVSLQQALGKAEMLCSTLKKQMKYLEQQQDETKQAQEEAR
notes: the methods name pET24a with a C-terminal His6; One sentence of the results prints 1–517; also called TRAIP-5; TRAIP RINGCC (1–517); source: E. coli BL21 (DE3), purified (Ni-NTA, SEC)
- binding result [1]: binds

Binder: B2
- stoichiometry N [2]: 3

B3: RAP80 zinc finger (490–584 aa) (domain or fragment, human, UniProt Q96RL1 490-584, looked up)
chain: KEVAISTFSSSNQVSCPLCDQCFPPTKIERHAMYCNGLMEEDTVLTRRQKEAKTKSDSGTAAQTSLDIDKNEKCYLCKSLVPFREYQCHVDSCLQ
notes: RAP80 (receptor-associated protein 80), human, 719 aa, zinc finger motif, residues 490(K)-584(Q), 95 aa; the methods name pET24a with a C-terminal His6; also called RAP80 Zn finger motif; RAP80-1; source: E. coli BL21 (DE3), purified (Ni-NTA, SEC)
- stoichiometry N [1]: 3
- binding result (TRAIP CC (66–164 aa)): binds

— paper PMC8626312, “In vitro assembly complex formation of TRAIP CC and RAP 80 zinc finger motif revealed by our study” (Saudi Journal of Biological Sciences, 2021)
